Legend:
[1] = target: THOC4 (ALYREF) (UniProt Q86V81 Q86V81:2-257); experiment: SPR
[2] = target: hSSB1 (Homo sapiens, UniProt Q9BQ15 Q9BQ15:1-211); experiment: SPR
hSSB1, sequence (Q9BQ15 whole entry, one chain of several): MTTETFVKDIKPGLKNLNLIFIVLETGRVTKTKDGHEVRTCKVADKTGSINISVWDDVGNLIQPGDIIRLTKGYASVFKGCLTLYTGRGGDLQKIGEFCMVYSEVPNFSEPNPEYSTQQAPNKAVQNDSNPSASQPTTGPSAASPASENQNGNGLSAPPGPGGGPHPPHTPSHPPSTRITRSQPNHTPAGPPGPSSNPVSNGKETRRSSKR

| Binder | binding signal [1] | binding signal [2] |
| --- | --- | --- |
| UCAAGGAAGAUGGCAUUUCU (ssRNA, 2'-OMe all, full PS) [DKLS687764 (SEQ 14)] | 0.55 normalized Rmax | 1.12 normalized Rmax |
| CCAUCUGUAAUUACAAAAUUAAA (ssRNA, 2'-OMe all, full PS) [DKLS765774 (SEQ 16)] | 0.97 normalized Rmax | 1.93 normalized Rmax |
| CAGCAGCAGAGUAUUUAUCAU (ssRNA, 2'-OMe all, full PS) [DKLS481254 (SEQ 31)] | 0.46 normalized Rmax | 1.1 normalized Rmax |
| GCCGGACUUGCCU (ssRNA, 2'-OMe all, full PS) [In3E3 5' truncation 13 nt] | 0.01 normalized Rmax | 0.22 normalized Rmax |
| CAGCAGCAGAGUCUUCAUCAU (ssRNA, 2'-OMe all, full PS) [DKLS354527 (SEQ 21)] | 0.37 normalized Rmax | 0.91 normalized Rmax |
| AGAGGCAGCAGUACGACGG (ssRNA, 2'-OMe all, full PS) [LSA_ATG 5' truncation 19 nt] | 1.1 normalized Rmax | 1.02 normalized Rmax |
| GAGGCAGCAGUACGAC (ssRNA, 2'-OMe all, full PS) [LSA_ATG both-end truncation 16 nt] | 0.44 normalized Rmax | 0.67 normalized Rmax |
| UCUCCCAGCAUGUGCCAU (ssRNA, 2'-OMe all, full PS) [DKLS832163 (SEQ 11)] | 0.33 normalized Rmax | 0.31 normalized Rmax |
| CUGCCUAAGUAAAAAGUGUAAAC (ssRNA, 2'-OMe all, full PS) [DKLS687118 (SEQ 15)] | 0.51 normalized Rmax | 1.21 normalized Rmax |
| AGGCAGCAGUACGACGG (ssRNA, 2'-OMe all, full PS) [LSA_ATG 5' truncation 17 nt] | 0.8 normalized Rmax | 0.68 normalized Rmax |
| UGUCAUAUUCCUGGAUCCUU (ssRNA, 2'-OMe all, full PS) [DKLS684387 (SEQ 29)] | 0.87 normalized Rmax | 1.38 normalized Rmax |
| GCGGGUCCUCUACGCACUGA (ssRNA, 2'-OMe all, full PS) [DKLS649547 (SEQ 53)] | 0.85 normalized Rmax | 1.55 normalized Rmax |
| CAGAGGCAGCAGUACGA (ssRNA, 2'-OMe all, full PS) [LSA_ATG 3' truncation 17 nt] | 1.46 normalized Rmax | 1.19 normalized Rmax |
| GUCUCCGUCGUCAUGCUGCC (ssRNA, 2'-OMe all, full PS) [ASO_ATG (DKLS421748)] | 0.33 normalized Rmax | 0.64 normalized Rmax |
| GGGCCUCCCGCACUUGAGAU (ssRNA, 2'-OMe all, full PS) [DKLS679059 (SEQ 55)] | 0.37 normalized Rmax | 0.85 normalized Rmax |
| GCUCCAGCAUCUGCUGCUUC (ssRNA, 2'-OMe all, full PS) [DKLS491049 (SEQ 32)] | 0.26 normalized Rmax | 0.65 normalized Rmax |
| UGCUAUCUUAUCACCUUUAG (ssRNA, 2'-OMe all, full PS) [DKLS331584 (SEQ 26)] | 0.15 normalized Rmax | 0.48 normalized Rmax |
| CAGAGGCAGCAGUACGACGG (ssRNA, 2'-OMe all, ZEN at both ends) [LSA_ATG ZEN (DKLS649218)] |  | 0.15 normalized Rmax |
| GCCCGUCUGGCGCAUAGCUA (ssRNA, 2'-OMe all, full PS) [DKLS646683 (SEQ 54)] | 0.85 normalized Rmax | 0.98 normalized Rmax |
| CACGUACCUUAGUGCCUCAC (ssRNA, 2'-OMe all, ZEN at both ends) [Open_L ZEN (DKLS665920)] | -0.15 normalized Rmax |  |
| GGCACGUCCGCCAGUCAUGU (ssRNA, 2'-OMe all, full PS) [DKLS656105 (SEQ 56)] | 0.23 normalized Rmax | 0.73 normalized Rmax |
| CGGACUUGCCU (ssRNA, 2'-OMe all, full PS) [In3E3 5' truncation 11 nt] | 0.01 normalized Rmax | 0.09 normalized Rmax |
| CAGAGGCAGCAGUACGAC (ssRNA, 2'-OMe all, full PS) [LSA_ATG 3' truncation 18 nt] | 0.71 normalized Rmax | 0.64 normalized Rmax |
| GGGACGCGGCGCUCGGUCAU (ssRNA, 2'-OMe all, full PS) [DKLS951212 (SEQ 30)] | 1.35 normalized Rmax | 2.13 normalized Rmax |
| GGCGAAUGAGACUUCUCUUA (ssRNA, 2'-OMe all, full PS) [DKLS693540 (SEQ 27)] | 0.89 normalized Rmax | 1.64 normalized Rmax |

| Binder | binding signal [1] | binding signal [2] |
| --- | --- | --- |
| UCCUGGAUCCUUCACCAAUG (ssRNA, 2'-OMe all, full PS) [DKLS687192 (SEQ 28)] | 0.76 normalized Rmax | 1.08 normalized Rmax |
| AGAGGCAGCAGUACGACG (ssRNA, 2'-OMe all, full PS) [LSA_ATG both-end truncation 18 nt] | 0.81 normalized Rmax | 0.96 normalized Rmax |
| UGUGCUAUUCUGUGAAUU (ssRNA, 2'-OMe all, full PS) [DKLS484655 (SEQ 22)] | 0.22 normalized Rmax | 0.43 normalized Rmax |
| CCUCUCUGCCGCUCUUGCCU (ssRNA, 2'-OMe all, full PS) [DKLS420640 (SEQ 57)] | 0.03 normalized Rmax | 0.48 normalized Rmax |
| CAGAGGCAGCAGUACG (ssRNA, 2'-OMe all, full PS) [LSA_ATG 3' truncation 16 nt] | 0.53 normalized Rmax | 0.46 normalized Rmax |
| GGUCGUAAUACUUUCACUUA (ssRNA, 2'-OMe all, full PS) [DKLS629224 (SEQ 12)] | 0.47 normalized Rmax | 0.97 normalized Rmax |
| GUGCAUGGAAUCACGGA (ssRNA, 2'-OMe all, full PS) [Open_A 3' truncation 17 nt] | 1 normalized Rmax | 2.06 normalized Rmax |
| CAGAGGCAGCAGUACGACG (ssRNA, 2'-OMe all, full PS) [LSA_ATG 3' truncation 19 nt] | 0.92 normalized Rmax | 0.78 normalized Rmax |
| GAGUAAACAUUCUGUGUGGAGUC (ssRNA, 2'-OMe all, full PS) [DKLS965031 (SEQ 17)] | 0.64 normalized Rmax | 1.35 normalized Rmax |
| AGGCAGCAGUACGA (ssRNA, 2'-OMe all, full PS) [LSA_ATG both-end truncation 14 nt] | 1.02 normalized Rmax | 1.05 normalized Rmax |
| GAGGCAGCAGUACGACGG (ssRNA, 2'-OMe all, full PS) [LSA_ATG 5' truncation 18 nt] | 1.06 normalized Rmax | 0.77 normalized Rmax |
| UCUCCCAGCAUGUGCCAU (ssRNA, full PS) [DKLS658030 (SEQ 8)] | 0.52 normalized Rmax | 0.51 normalized Rmax |
| UAAGCUGUUCUAUGUGUU (ssRNA, 2'-OMe all, full PS) [DKLS463500 (SEQ 23)] | 0.32 normalized Rmax | 0.74 normalized Rmax |
| UCUUAUGUUUCCGAACCGUU (ssRNA, 2'-OMe all, full PS) [DKLS370480 (SEQ 25)] | 0.34 normalized Rmax | 0.69 normalized Rmax |
| GCAGCAGUACGACGG (ssRNA, 2'-OMe all, full PS) [LSA_ATG 5' truncation 15 nt] | 0.31 normalized Rmax | 0.46 normalized Rmax |
| ACAUCGUUACCAGACAGUGUUA (ssRNA, 2'-OMe all, full PS) [DKLS687764 (SEQ 34)] | 0.75 normalized Rmax | 1.47 normalized Rmax |
| GCCACCCGUCGGUUGCUAGA (ssRNA, 2'-OMe all, full PS) [DKLS659460 (SEQ 52)] | 0.89 normalized Rmax | 1.65 normalized Rmax |
| ACAUGGUUCCCCGACAGUGUUA (ssRNA, 2'-OMe all, full PS) [DKLS687118 (SEQ 35)] | 0.72 normalized Rmax | 1.7 normalized Rmax |
| UCUCCCAGCGUGCGCCAU (ssRNA, 2'-OMe all, full PS) [DKLS696616 (SEQ 9)] | 1.12 normalized Rmax | 0.79 normalized Rmax |
| GGCAGCAGUACGACGG (ssRNA, 2'-OMe all, full PS) [LSA_ATG 5' truncation 16 nt] | 0.49 normalized Rmax | 0.64 normalized Rmax |
| GUGCAUGGAAUCACGGAGU (ssRNA, 2'-OMe all, full PS) [Open_A 3' truncation 19 nt] | 0.47 normalized Rmax | 1.24 normalized Rmax |
| UUGACAGAUUAAGUCCAUUC (ssRNA, 2'-OMe all, full PS) [DKLS675388 (SEQ 51)] | 0.15 normalized Rmax | 0.89 normalized Rmax |
| GUGCAUGGAAUCACGGAG (ssRNA, 2'-OMe all, full PS) [Open_A 3' truncation 18 nt] | 0.39 normalized Rmax | 1.03 normalized Rmax |
| UACCGCGUGCGACCCUCU (ssRNA, full PS) [DKLS371273 (SEQ 7)] | 0.81 normalized Rmax | 1.05 normalized Rmax |
| GUGCAUGGAAUCACGG (ssRNA, 2'-OMe all, full PS) [Open_A 3' truncation 16 nt] | 0.29 normalized Rmax | 0.66 normalized Rmax |

— patent US20200230168, “NUCLEIC ACID OLIGOMERS AND USES THEREFOR” (Queensland University of Technology, published 2020)
